Test results taken from patent US20110301073, “Novel DNA-binding proteins and uses thereof” (Sangamo BioSciences, Inc., published 2011).

How the values were obtained:
TALE13 N+91 C+52 = TALE13 N+91 C+52 (Xanthomonas axonopodis); assay: DNA-binding ELISA; background level
Source text: (§1) When clones #3, 4 and 5 were subjected to the SELEX procedure, no consensus sequences were detected. Thus it appears that the TALE binding domains require N- and C-terminal cap sequences comprised in from clone #2 to yield a consensus sequence in this assay. Additional truncations were made and tested for activity using a DNA binding ELISA assay essentially as described in Bartsevich et al., Stem Cells. 2003; 21:632-7. The truncations are presented below in Table 7, which also includes the ELISA results. The starting N-terminus in these truncations is at amino acid 152, identical to the N-terminus in the #1, #2, and #3 truncations discussed above. In this fine-scale truncation series, the end points are as follows.

TALE13 N+91 C+115 = TALE13 N+91 C+115 (Xanthomonas axonopodis); assay: DNA-binding ELISA; background level
Source text: as §1

TALE13 N+100 C+52 = TALE13 N+100 C+52 (Xanthomonas axonopodis); assay: DNA-binding ELISA; background level
Source text: as §1

TALE13 N+111 C+52 = TALE13 N+111 C+52 (Xanthomonas axonopodis); assay: DNA-binding ELISA; background level
Source text: as §1

TALE13 N+121 C+52 = TALE13 N+121 C+52 (Xanthomonas axonopodis); assay: DNA-binding ELISA; background level
Source text: as §1

TALE13 N+100 C+115 = TALE13 N+100 C+115 (Xanthomonas axonopodis); assay: DNA-binding ELISA; background level
Source text: as §1

TALE13 N+137 C+95 = TALE13 N+137 C+95 (Xanthomonas axonopodis); assay: DNA-binding ELISA; replicates; settings: tags: N-terminal Met
Source text: as §1

TALE13 +50 FokI = molecular target: T1, TALE13 +50 FokI (Xanthomonas axonopodis (engineered)); assay: cleavage_in_vitro; two inverted sites, 16 bp gap; NEB Buffer 2, 37 C; settings: tags: FLAG, NLS, chain copies: 2
T1 chain: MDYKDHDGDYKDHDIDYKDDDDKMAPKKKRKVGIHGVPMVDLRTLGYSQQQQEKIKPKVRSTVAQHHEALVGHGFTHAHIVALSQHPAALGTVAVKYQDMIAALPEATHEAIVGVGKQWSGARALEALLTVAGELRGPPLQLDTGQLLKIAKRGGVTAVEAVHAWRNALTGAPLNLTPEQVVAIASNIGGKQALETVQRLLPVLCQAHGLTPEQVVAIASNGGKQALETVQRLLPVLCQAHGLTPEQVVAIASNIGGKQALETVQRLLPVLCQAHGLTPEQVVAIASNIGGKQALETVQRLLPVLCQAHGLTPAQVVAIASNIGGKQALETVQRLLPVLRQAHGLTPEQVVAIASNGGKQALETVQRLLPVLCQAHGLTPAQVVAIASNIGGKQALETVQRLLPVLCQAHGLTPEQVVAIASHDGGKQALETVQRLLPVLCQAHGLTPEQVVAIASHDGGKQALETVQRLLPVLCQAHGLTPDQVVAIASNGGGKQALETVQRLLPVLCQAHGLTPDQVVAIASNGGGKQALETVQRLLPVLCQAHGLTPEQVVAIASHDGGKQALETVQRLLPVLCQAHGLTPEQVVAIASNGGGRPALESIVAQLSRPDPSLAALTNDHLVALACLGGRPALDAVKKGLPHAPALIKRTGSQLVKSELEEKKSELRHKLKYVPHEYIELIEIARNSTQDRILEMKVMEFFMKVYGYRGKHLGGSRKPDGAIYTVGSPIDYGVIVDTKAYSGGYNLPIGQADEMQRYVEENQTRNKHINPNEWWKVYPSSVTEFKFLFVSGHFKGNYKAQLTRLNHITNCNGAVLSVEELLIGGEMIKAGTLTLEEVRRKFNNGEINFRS
Procedure: TALE domain fusions were also constructed using Fold cleavage half domains. For these examples, wild type FokI half cleavage domains were used so that for nuclease activity, a homodimer must be formed from two of the fusions. For these fusions, the TALE13 DNA binding domain was fused to each FokI half domain by cloning the TALE DNA binding domain into a plasmid adjacent to FokI-specifying sequence. In addition, various linkers were tested for use between the DNA binding domain and the nuclease domain. Linkers L2 and L8 were used which are as follows: L2=GS (SEQ ID NO:71) and L8=[…] (SEQ ID NO:72). The target sites were cloned into a TOPO2.1 target vector (Invitrogen) with varying gap spacings between each target binding site such that the two were separated from each other by 2 to 22 bp. PCR amplification of an approximately 1 kb region of the target vector was done to generate the target DNAs. The TALE DNA binding domains were also truncated as described previously, and are described using the same nomenclature as described above in Examples 2 and 6. The TALE domain nuclease fusion clones were expressed in the TNT Rabbit Reticulocyte Lysate system by adding 5 μL of water containing 250 nanograms of the nuclease fusion clone plasmid to 20 μL of lysate and incubating at 30° C. for 90 minutes.
The lysate was then used to cleave the target DNAs as follows: 2.5 μL of lysate were added to a 50 μL reaction containing 50 nanograms of PCR-amplified target DNA and a final Buffer 2 (New England Biolabs) concentration of 1×. The cleavage reaction was for one hour at 37° C., followed by a 20 minute heat inactivation stage at 65° C. The reaction was then centrifuged at high speed to separate the target DNA from the lysate, causing the lysate to condense into a pellet in the reaction well. The DNA-containing supernatant was pipetted off and run on an ethidium bromide-stained agarose gel (Invitrogen) to separate intact target DNA from cleaved target DNA. The agarose gel was then analyzed using AlphaEaseFC (Alpha Innotech) software to measure the amount of target DNA present in the large uncleaved DNA band and the two smaller DNA bands resulting from a single cleavage event of the target DNA. The percentage of cleaved DNA out of the total amount of target DNA loaded into the gel represents the percent cleavage in each reaction.

B1: TALE13 target (dsDNA)
DNA 1: TATAAATACCTTCT
DNA 2: AGAAGGTATTTATA
B1: no binding (TALE13 N+91 C+52); no binding (TALE13 N+91 C+115); no binding (TALE13 N+100 C+52). B1: no binding (TALE13 N+111 C+52); no binding (TALE13 N+121 C+52); no binding (TALE13 N+100 C+115). The binding result (TALE13 N+137 C+95) was “binds” and the activity (TALE13 +50 FokI) was 83 % cleavage.
